According to IntAct's records for PubMed 23615222:

B1: Thioredoxin H1 (Arabidopsis thaliana (Mouse-ear cress)), P29448 (parent)
chain: MASEEGQVIACHTVETWNEQLQKANESKTLVVVDFTASWCGPCRFIAPFFADLAKKLPNVLFLKVDTDELKSVASDWAIQAMPTFMFLKEGKILDKVVGAKKDELQSTIAKHLA

Variants of: B1
Conditions: with cdpkl_arath CPK21, Q9ZSA2
cdpkl_arath CPK21, Q9ZSA2, sequence (Q9ZSA2 whole entry): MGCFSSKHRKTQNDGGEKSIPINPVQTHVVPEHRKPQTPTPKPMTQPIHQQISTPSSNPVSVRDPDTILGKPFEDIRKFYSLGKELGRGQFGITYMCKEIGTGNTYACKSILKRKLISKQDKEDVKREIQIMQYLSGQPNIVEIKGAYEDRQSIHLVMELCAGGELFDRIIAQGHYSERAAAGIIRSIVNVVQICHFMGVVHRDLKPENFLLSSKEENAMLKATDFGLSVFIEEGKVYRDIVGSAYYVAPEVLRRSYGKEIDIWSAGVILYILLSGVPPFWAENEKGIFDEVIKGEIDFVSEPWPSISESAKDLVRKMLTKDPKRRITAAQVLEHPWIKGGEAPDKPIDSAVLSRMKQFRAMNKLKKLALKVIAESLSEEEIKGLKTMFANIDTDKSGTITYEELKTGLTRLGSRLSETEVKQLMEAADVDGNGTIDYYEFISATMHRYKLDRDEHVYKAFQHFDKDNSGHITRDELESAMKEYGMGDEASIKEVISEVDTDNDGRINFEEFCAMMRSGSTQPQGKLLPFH

effect of a mutation on the interaction | Variant
increasing interaction | MASEEGQVIACHTVETWNEQLQKANESKTLVVVDFTASWCGPSRFIAPFFADLAKKLPNVLFLKVDTDELKSVASDWAIQAMPTFMFLKEGKILDKVVGAKKDELQSTIAKHLA [C43S]
